The target of test [1] is T1, human IGF-1R extracellular domain (Homo sapiens, UniProt P08069). The experiment in a line: SPR. (In SPR one partner is held on a chip, and binding of the other changes the refractive index at the surface.)
The target in test [2] is T2, IGF-1R on tumor cells (A549, TC-71) (Homo sapiens (A549, TC-71 cells), UniProt P08069). The experiment in a line: flow cytometry on cells. A general note: A flow cytometer gives signals particle by particle.
Test [3] addresses T2, IGF-1R on tumor cells (A549, TC-71). As to the kind of experiment: flow cytometry on cells. This is another data set of the same source.
Test [4] has as its target T1, human IGF-1R extracellular domain. The experiment in a line: SPR. The source holds these as a separate data set.

Numbering of substitutions follows the chain as printed. Read-outs that look alike come from different tables or passages of the source.

T2 sequence (P08069 31-1367): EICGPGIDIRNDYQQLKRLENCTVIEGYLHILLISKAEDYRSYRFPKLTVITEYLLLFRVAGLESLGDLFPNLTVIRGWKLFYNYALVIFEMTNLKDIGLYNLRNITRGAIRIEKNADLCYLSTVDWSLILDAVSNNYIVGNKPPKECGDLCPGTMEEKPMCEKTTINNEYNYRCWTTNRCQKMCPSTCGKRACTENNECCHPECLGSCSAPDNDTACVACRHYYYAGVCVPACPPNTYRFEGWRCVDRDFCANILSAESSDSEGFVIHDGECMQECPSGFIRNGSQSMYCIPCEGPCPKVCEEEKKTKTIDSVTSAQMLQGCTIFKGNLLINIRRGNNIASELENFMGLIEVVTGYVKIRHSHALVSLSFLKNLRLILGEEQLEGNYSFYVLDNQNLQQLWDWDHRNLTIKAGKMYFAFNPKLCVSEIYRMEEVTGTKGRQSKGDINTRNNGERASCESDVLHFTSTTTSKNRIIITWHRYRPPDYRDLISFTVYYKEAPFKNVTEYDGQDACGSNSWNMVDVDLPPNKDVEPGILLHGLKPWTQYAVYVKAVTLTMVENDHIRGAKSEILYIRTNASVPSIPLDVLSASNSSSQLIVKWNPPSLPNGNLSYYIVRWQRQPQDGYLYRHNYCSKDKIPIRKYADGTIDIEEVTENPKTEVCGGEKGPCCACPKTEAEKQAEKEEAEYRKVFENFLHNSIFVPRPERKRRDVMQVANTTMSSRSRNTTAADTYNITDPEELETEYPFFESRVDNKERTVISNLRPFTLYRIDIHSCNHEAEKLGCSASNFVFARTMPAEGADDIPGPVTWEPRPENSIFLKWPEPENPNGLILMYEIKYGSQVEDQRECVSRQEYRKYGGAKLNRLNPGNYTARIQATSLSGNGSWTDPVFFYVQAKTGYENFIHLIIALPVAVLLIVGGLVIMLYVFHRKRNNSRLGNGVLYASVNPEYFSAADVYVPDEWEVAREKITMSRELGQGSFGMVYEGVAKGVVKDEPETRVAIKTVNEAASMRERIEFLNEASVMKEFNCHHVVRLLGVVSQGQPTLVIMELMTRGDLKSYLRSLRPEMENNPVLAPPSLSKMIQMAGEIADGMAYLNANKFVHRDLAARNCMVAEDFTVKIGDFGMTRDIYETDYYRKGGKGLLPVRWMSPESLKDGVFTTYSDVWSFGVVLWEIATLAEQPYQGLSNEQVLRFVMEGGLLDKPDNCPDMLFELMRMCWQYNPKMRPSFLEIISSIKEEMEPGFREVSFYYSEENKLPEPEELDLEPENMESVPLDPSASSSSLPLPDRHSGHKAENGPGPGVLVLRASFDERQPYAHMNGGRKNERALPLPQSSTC
T1 sequence (P08069 741-935): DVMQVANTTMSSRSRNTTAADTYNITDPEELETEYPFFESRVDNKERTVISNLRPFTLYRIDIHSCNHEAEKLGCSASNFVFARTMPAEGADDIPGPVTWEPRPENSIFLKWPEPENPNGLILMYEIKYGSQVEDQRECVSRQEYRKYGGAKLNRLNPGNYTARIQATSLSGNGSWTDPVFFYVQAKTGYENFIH

B1: F13B5 Fab fragment (Fab, V domains shown)
VH: QVELVESGGGVVQPGRSQRLSCAASGFTFSSYGMHWVRQAPGKGLEWVAIIWFDGSSTYYADSVRGRFTISRDNSKNTLYLQMNSLRAEDTAVYFCARELGRRYFDLWGRGTLVSVSS
VL: EIVLTQSPATLSLSPGERATLSCRASQSVSSYLAWYQQKPGQAPRLLIYQASKRATGIPARFSGSGSGTDFTLTISSLEPEDFAVYYCQQRSKYPPWTFGQGTKVESK
In general, Kd refers to a measure of binding affinity in units of concentration. Read a low Kd as a tighter complex. For orientation: koff means a measure of how fast the partners let go of each other. A high value points to a short-lived complex. What is called kon is the second-order rate constant of association. Lower therefore signals slow association. As to B1, in test [1], binding was put at a Kd of 1.47 nM, the off-rate constant (koff) came out at 0.00025 s⁻¹ and the kon came out at 170000 M⁻¹ s⁻¹.

B2: R1507 Fab fragment (Fab, V domains shown)
VH: B1 VH
VL: B1 VL with Q50D, Y94W
With B2, in test [1], binding was characterised by a dissociation constant (Kd) of 18 nM, the koff was 0.00271 s⁻¹ and the kon worked out at 153000 M⁻¹ s⁻¹. Moreover, the “fold reduction of binding against bivalent R1507” value in test [2] was approximately 10 fold. For the same molecule, the “fold reduction of binding against bivalent R1507” value in test [3] was approximately 34 fold.

B3: R1507, bivalent monospecific anti-IGF-1R antibody (antibody, V domains shown)
VH: B1 VH
VL: B1 VL with Q50D, Y94W
Broadly, the IC50 is the midpoint of a concentration-inhibition curve. Low values mean greater potency in that assay, high ones weaker potency in that assay. As to B3, the Kd in test [4] was determined as 5 nM. Moreover, the IC50 in test [3] is approximately 1 nM.

(Values after publication PMC4966845 (mAbs, 2016).)
